The Human Domainome abundance scans (Beltran et al. 2025)
± gives the uncertainty stated by the source.

B1: Zinc finger homeobox protein 4, residues 2183 to 2238; numbered along this chain, Q86UP3 (parent)
chain: SSRTRFTDYQLRVLQDFFDTNAYPKDDEIEQLSTVLNLPTRVIVVWFQNARQKARK

Variants of: B1
Test: abundance fitness (aPCA) (normalised: wild type 0, dead -1); higher = more abundant; growth selection in yeast, the domain comes from the species named
Conditions: Homo sapiens

Row | Variant | abundance fitness
1 | SSRTRFTDYQLRVLQDFFDTNAYKKDDEIEQLSTVLNLPTRVIVVWFQNARQKARK [P24K] | -0.817 ± 0.25
2 | SSRTRFTDYQLRVLQDFFDTNAYQKDDEIEQLSTVLNLPTRVIVVWFQNARQKARK [P24Q] | -0.703 ± 0.18
3 | SSRTRFTDYQLRVLQDFFDTNAYPKVDEIEQLSTVLNLPTRVIVVWFQNARQKARK [D26V] | -0.048 ± 0.086
4 | SSRTRFTDYQLRVLQDFFDTNAYPKTDEIEQLSTVLNLPTRVIVVWFQNARQKARK [D26T] | -0.071 ± 0.16
5 | SSRTRFTDYYLRVLQDFFDTNAYPKDDEIEQLSTVLNLPTRVIVVWFQNARQKARK [Q10Y] | -0.787 ± 0.09
6 | SSRTRFTDYELRVLQDFFDTNAYPKDDEIEQLSTVLNLPTRVIVVWFQNARQKARK [Q10E] | -0.297 ± 0.11
7 | SSRTIFTDYQLRVLQDFFDTNAYPKDDEIEQLSTVLNLPTRVIVVWFQNARQKARK [R5I] | 0.238 ± 0.13
8 | SSRTHFTDYQLRVLQDFFDTNAYPKDDEIEQLSTVLNLPTRVIVVWFQNARQKARK [R5H] | 0.194 ± 0.15
9 | SSRTRFTDYQLRVLQDFFDTNAYPFDDEIEQLSTVLNLPTRVIVVWFQNARQKARK [K25F] | -0.467 ± 0.16
10 | SSRTRFTDYQLRVLQDFFDTNAYPLDDEIEQLSTVLNLPTRVIVVWFQNARQKARK [K25L] | -0.233 ± 0.091
11 | SSRTRFTDYQLRVLQDFFDTNAYPKDDEIEQLSTVLNLPTRVIVPWFQNARQKARK [V45P] | -0.245 ± 0.2
12 | SSRTRFTDYQLRVLQDFFDTNAYPKDDEIEQLRTVLNLPTRVIVVWFQNARQKARK [S33R] | -0.486 ± 0.19
13 | SSRTRFTDYQLRVLQDFHDTNAYPKDDEIEQLSTVLNLPTRVIVVWFQNARQKARK [F18H] | -0.139 ± 0.08
14 | SSRTRFTDYQLRVLQDFQDTNAYPKDDEIEQLSTVLNLPTRVIVVWFQNARQKARK [F18Q] | -0.329 ± 0.093
15 | SSRTRFTDYQLRVLQDFFGTNAYPKDDEIEQLSTVLNLPTRVIVVWFQNARQKARK [D19G] | -0.032 ± 0.075
16 | SSRTRFTDYQLRVLQDFFTTNAYPKDDEIEQLSTVLNLPTRVIVVWFQNARQKARK [D19T] | 0.164 ± 0.12
17 | SSRTRFTDYQLRVLQDFFWTNAYPKDDEIEQLSTVLNLPTRVIVVWFQNARQKARK [D19W] | -0.292 ± 0.12
18 | SSRTRFTDYQLRVLQDFFDTNAYPKDDEIEQLSTVLPLPTRVIVVWFQNARQKARK [N37P] | -0.847 ± 0.18
19 | SSRTRFTDYQLRVLQDFFDTNAYPKDDEIEQLSTVLQLPTRVIVVWFQNARQKARK [N37Q] | -0.137 ± 0.13
20 | SSRTRFTDYQLRVLQDFFDTNAYPKDDEIEQLSTVLSLPTRVIVVWFQNARQKARK [N37S] | -0.109 ± 0.096
21 | SSRTRFTDYQLRVLQDFFDTNAYPKDDEIEFLSTVLNLPTRVIVVWFQNARQKARK [Q31F] | -0.028 ± 0.15
22 | SSRTRFTDYQLRVLQDFFDTNAYPKDDEIEQLSTVLNLPTRVIVVWFQNARQKARY [K56Y] | 0.061 ± 0.21
23 | SSRTRFTDYQLRVLQDFFDTNAYPKDDEIEQLSTVLNLPTRVIVVWFQNARQKARQ [K56Q] | -0.178 ± 0.27
24 | SSRTRFTDYQLRVLQDFFDTNAYPKDDEIEQLSTVLNLPTRVIVVWFQNARQKARH [K56H] | -0.012 ± 0.23

Row | Variant | abundance fitness
25 | SSRTRFTDYQLRVLQPFFDTNAYPKDDEIEQLSTVLNLPTRVIVVWFQNARQKARK [D16P] | -0.357 ± 0.14
26 | SSRTRFTDYQLRVLQDFFDTNAYPKDDEIEQLSTVLNLPTRVIVVWFQIARQKARK [N49I] | -0.127 ± 0.16
27 | SSRTRFTDYQLRVLQDFFDTNAYPKDDEIEQLSTVLNLPTRVIVVWFQFARQKARK [N49F] | 0.005 ± 0.27
28 | SSRTRFTDYQLRVLQDFFDTNAYPKDDEIEQLSTVLNLPTNVIVVWFQNARQKARK [R41N] | 0.103 ± 0.21
29 | SSRTRFTDYQLPVLQDFFDTNAYPKDDEIEQLSTVLNLPTRVIVVWFQNARQKARK [R12P] | -0.608 ± 0.14
30 | SSRTRFTDYQLRVLQDFFDTNAYPKDDEIEQLSTVLNLPTRVIVVWFCNARQKARK [Q48C] | -0.051 ± 0.23
31 | SSRTRFTDYQLRVLQDFFDTNAYPKDDEIEQLSTVLNLPTRVIVVWFENARQKARK [Q48E] | -0.134 ± 0.19
32 | SSRTRFTDYQLRVLQDKFDTNAYPKDDEIEQLSTVLNLPTRVIVVWFQNARQKARK [F17K] | -0.094 ± 0.1
33 | SSRTRFTDYQLRVLQDPFDTNAYPKDDEIEQLSTVLNLPTRVIVVWFQNARQKARK [F17P] | -1 ± 0.18
34 | SSRTRFTDYQLRVLQDFFDTNAYPKDDEIEQLSTFLNLPTRVIVVWFQNARQKARK [V35F] | -0.206 ± 0.16
35 | SSRTRFTDYQLRVLQDFFDTNAYPKDDEIEQLSTTLNLPTRVIVVWFQNARQKARK [V35T] | 0.108 ± 0.11
36 | SSRTRFTDYQLRVLQDFFDTNAYPKDDEIEQLSTYLNLPTRVIVVWFQNARQKARK [V35Y] | -0.506 ± 0.22
37 | SSRTRFTDYQLRVLQDFFDTNAYPKDDEIEQLSTNLNLPTRVIVVWFQNARQKARK [V35N] | -0.427 ± 0.26
38 | SSRTRFTDYQLRVLQDFFDTNAYPKDKEIEQLSTVLNLPTRVIVVWFQNARQKARK [D27K] | -0.029 ± 0.4
39 | SSRTRFTDYQARVLQDFFDTNAYPKDDEIEQLSTVLNLPTRVIVVWFQNARQKARK [L11A] | -0.108 ± 0.24
40 | SSRTRFTDYQCRVLQDFFDTNAYPKDDEIEQLSTVLNLPTRVIVVWFQNARQKARK [L11C] | -0.341 ± 0.25
41 | SSRTRFTDYQHRVLQDFFDTNAYPKDDEIEQLSTVLNLPTRVIVVWFQNARQKARK [L11H] | -0.204 ± 0.16
42 | SSRTRFTDYQLRVLQDFFDTNASPKDDEIEQLSTVLNLPTRVIVVWFQNARQKARK [Y23S] | 0.032 ± 0.092
43 | SSRTRFTDYQLRVLQDFFDTNACPKDDEIEQLSTVLNLPTRVIVVWFQNARQKARK [Y23C] | -0.228 ± 0.12
44 | SSRTRFTDYQLRVLQDFFDTNAYPKDDIIEQLSTVLNLPTRVIVVWFQNARQKARK [E28I] | -0.741 ± 0.23
45 | SSRTRFTDYQLRVLQDFFDTNAYPKDDAIEQLSTVLNLPTRVIVVWFQNARQKARK [E28A] | -0.036 ± 0.094
46 | SSRTRFTDYQLRVLQDFFDTNAYPKDDYIEQLSTVLNLPTRVIVVWFQNARQKARK [E28Y] | -0.341 ± 0.14
47 | SSRTRFTDYQLRVLQDFFDTNAYPKDDEFEQLSTVLNLPTRVIVVWFQNARQKARK [I29F] | -0.152 ± 0.11
